This assay deals with human 4-1BB (human) (UniProt Q07011). Description: flow cytometry; dilution series of HEK293T supernatant on Jurkat TPR cells expressing human 4-1BB. A general note: In flow cytometry, cells or beads pass a laser one at a time.
human 4-1BB (human), sequence (Q07011 24-255): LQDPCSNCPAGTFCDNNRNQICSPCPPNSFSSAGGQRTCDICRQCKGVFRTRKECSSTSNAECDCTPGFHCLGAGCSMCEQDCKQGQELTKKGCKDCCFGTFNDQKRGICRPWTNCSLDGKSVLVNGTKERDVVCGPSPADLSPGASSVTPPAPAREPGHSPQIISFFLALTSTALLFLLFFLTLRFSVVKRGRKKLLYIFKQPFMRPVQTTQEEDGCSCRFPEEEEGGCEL

B1: Triple-s4-1BBL-TriXVIII^LL (ligand)
chain: GSGSNWSHPQFEKGGSGGHHHHHHGGSGGGSSGAGGSGGSSGSDGASGSGVRLWATRQAMLGQVHEVPEGWLIFVAEQEELYVRVQNGFRKVQLEARTPLPRGTDNEGSLDLRQGMFAQLVAQNVLLIDGPLSWYSDPGLAGVSLTGGLSYKEDTKELVVAKAGVYYVFFQLELRRVVAGEGSGSVSLALHLQPLRSAAGAAALALTVDLPPASSEARNSAFGFQGRLLHLSAGQRLGVHLHTEARARHAWQLTQGATVLGLFRVTPEIPAGLPSPRSEGGGGSGGGGSGGGGSLDLRQGMFAQLVAQNVLLIDGPLSWYSDPGLAGVSLTGGLSYKEDTKELVVAKAGVYYVFFQLELRRVVAGEGSGSVSLALHLQPLRSAAGAAALALTVDLPPASSEARNSAFGFQGRLLHLSAGQRLGVHLHTEARARHAWQLTQGATVLGLFRVTPEIPAGLPSPRSEGGGGSGGGGSGGGGSLDLRQGMFAQLVAQNVLLIDGPLSWYSDPGLAGVSLTGGLSYKEDTKELVVAKAGVYYVFFQLELRRVVAGEGSGSVSLALHLQPLRSAAGAAALALTVDLPPASSEARNSAFGFQGRLLHLSAGQRLGVHLHTEARARHAWQLTQGATVLGLFRVTPEIPAGLPSPRSE
B1 yielded a supernatant dilution at which binding is no longer detectable (supernatant dilution (1:x)) of 256.

B2: s4-1BBL-TriXV (ligand)
chain: GSGSNWSHPQFEKGGSGGHHHHHHGGSGGGSRNLVTAFSNMDDMLQKAHLVIEGTFIYLRDSTEFFIRVRDGWKKLQLGELIPIPADSGSLDLRQGMFAQLVAQNVLLIDGPLSWYSDPGLAGVSLTGGLSYKEDTKELVVAKAGVYYVFFQLELRRVVAGEGSGSVSLALHLQPLRSAAGAAALALTVDLPPASSEARNSAFGFQGRLLHLSAGQRLGVHLHTEARARHAWQLTQGATVLGLFRVTPEIPAGLPSPRSE
On to B2, for which the supernatant dilution at which binding is no longer detectable (supernatant dilution (1:x)) is 512.

Source of the values: patent publication US20230303660A1.
